According to US20240288440A1 (MACFARLANE BURNET INSTITUTE FOR MEDICAL RESEARCH AND PUBLIC …, published 2024):

B1: chimeric secretory component (CSC) of the polymeric immunoglobulin receptor (receptor)
chain: QSSLLGPSSIFGPGEVNVLEGDSVSITCYYPTTSVTRHSRKFWCREEESGRCVTLASTGYTSQEYSGRGKLTDFPDKGEFVVTVDQLTQNDSGSYKCGVGVNGRGLDFGVNVLVSQKPELLNDTKVYTVDLGRTVTINCPFKTENAQKRKSLYKQIGLYPVLVIDSSGYVNPNYTGRIRLDIQGTGQLLFSVVINQLRLSDAGQYLCQAGDDSNSNKKNADLQVLKPEPELVYEDLRGSVTFHCALGPEVANVAKFLCRQSSGENCDVVVNTLGKRAPAFEGRILLNPQDKDGSFSVVITGLRKEDAGRYLCGAHSDGQLQEGSPIQAWQLFVNEESTIPRSPTVVKGVAGGSVAVLCPYNRKESKSIKYWCLWEGAQNGRCPLLVDSEGWVKAQYEGRLSLLEEPGNGTFTVILNQLTSRDAGFYWCLTNGDTLWRTTVEIKIIEGEPNLKVPGNVTAVLGETLKVPCHFPCKFSSYEKYWCKWNNTGCQALPSQDEGPSKAFVNCDENSRLVSLTLNLVTRADEGWYWCGVKQGHFYGETAAVYVAVEERKAAGSRDVSLAKADAAPDEKVLDSGFREIENKAIQDPRLFAEEKAVADTRDQADGSRASVDSGSSEEQGGSSRR
notes: also called R/HpIgR; chimeric pIgR; not shown: C-terminal 6 histidine tag

Assays:
purified IgM = biological target: T1, purified IgM; experiment: pull-down on CSC beads, reducing SDS-PAGE, bands quantitated
T1 construct: also called pentameric IgM

purified IgG = experiment: as above
[1] = biological target: B1; experiment: lateral flow assay, CSC test line, detection with RBD-biotin/streptavidin gold

Binder	percent bound (purified IgM) [%]	percent bound (purified IgG) [%]	binding result [1]
B1	~20	~20	
CB6-IgA2 (monomeric chimeric IgA2 of monoclonal antibody CB6) (antibody, also called monomeric CB6-IgA2) heavy: ASEVQLVESGGGLVQPGGSLRLSCAASGFTVSSNYMSWVRQAPGKGLEWVSVIYSGGSTFYADSVKGRFTISRDNSMNTLFLQMNSLRAEDTAVYYCARVLPMYGDYLDYWGQGTLVTVSSASTKGPSVFPLAPSSKSTSGASPTSPKVFPLSLDSTPQDGNVVVACLVQGFFPQEPLSVTWSESGQNVTARNFPPSQDASGDLYTTSSQLTLPATQCPDGKSVTCHVKHYTNPSQDVTVPCPVPPPPPCCHPRLSLHRPALEDLLLGSEANLTCTLTGLRDASGATFTWTPSSGKSAVQGPPERDLCGCYSVSSVLPGCAQPWNHGETFTCTAAHPELKTPLTANITKSGNTFRPEVHLLPPPSEELALNELVTLTCLARGFSPKDVLVRWLQGSQELPREKYLTWASRQEPSQGTTTFAVTSILRVAAEDWKKGDTFSCMVGHEALPLAFTQKTIDRLAGKPTHVNVSVVMAEVDGTCY light: not shown			no binding (tested: 100 µg/ml)
